According to IntAct's records for PubMed 19515790:

B1: Protein root UVB sensitive 1, chloroplastic (Arabidopsis thaliana (Mouse-ear cress)), Q7X6P3 (parent)
chain: MSCSYLLSGDASVVASRRWSDVSSRQRLFLPRQSLRQPSGSSFSRCVRLVANVNDHFSKQSLATRNCLASVFSADLGGSNGNNDNGNGGGGGGDGGGDNSDDSSFDLRYLCFLLLGLSCFFHFRLSAASAIAKDQNSDSNGDAVKETVWEVRGSKRKRLVPDFVKDEFVSEESAFELSSSLTPENLLAQCRNLLTQFLLPEGFPNSVTSDYLDYSLWRGVQGIASQISGVLATQSLLYAVGLGKGAIPTAAAINWVLKDGIGYLSKIMLSKYGRHFDVHPKGWRLFADLLENAAFGMEMLTPVFPQFFVMIGAAAGAGRSAAALIQAATRSCFNAGFASQRNFAEVIAKGEAQGMVSKSVGILLGIVVANCIGTSTSLALAAFGVVTTIHMYTNLKSYQCIQLRTLNPYRASLVFSEYLISGQAPLIKEVNDEEPLFPTVRFSNMKSPEKLQDFVLSSEAKAAAADIEERLQLGSKLSDVIHNKEEAIALFDLYRNEGYILTEHKGRFCVMLKESSTPQDMLRSLFQVNYLYWLEKNAGIEPASTYSDCKPGGRLHISLDYVRREFEHAKEDSESVGWVTEGLIARPLPTRIRLGHDRELLLSSPNSS
partner: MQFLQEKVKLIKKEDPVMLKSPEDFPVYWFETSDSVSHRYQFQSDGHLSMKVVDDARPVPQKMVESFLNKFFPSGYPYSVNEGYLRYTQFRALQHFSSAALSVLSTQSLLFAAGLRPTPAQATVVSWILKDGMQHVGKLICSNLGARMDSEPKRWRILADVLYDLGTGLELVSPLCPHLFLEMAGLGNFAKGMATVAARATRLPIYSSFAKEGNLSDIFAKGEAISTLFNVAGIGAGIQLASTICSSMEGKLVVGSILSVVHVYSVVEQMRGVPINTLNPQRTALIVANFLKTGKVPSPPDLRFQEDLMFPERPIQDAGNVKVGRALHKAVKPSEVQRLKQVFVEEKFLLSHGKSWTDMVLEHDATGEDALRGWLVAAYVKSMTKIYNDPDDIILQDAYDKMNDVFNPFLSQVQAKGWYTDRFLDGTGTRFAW

Variants of: B1
Details: with rus2_arath RUS2, Q9SJX7

| Variant | effect of a mutation on the interaction |
| --- | --- |
| E298G | decreasing interaction |
| K281G | disrupting interaction |

Other lines, results leading:

| effect of a mutation on the interaction | Variant |
| --- | --- |
| disrupting interaction | K349G |
| decreasing interaction | N342G |
